In patent publication US8530619B2, “Identification of the hepcidin binding site on ferroportin” (University of Utah Research Foundation, priority 2007, dated 2013):
Entries after “also recorded” stand apart in the source; their conditions may differ. No end group written: not given here.

How the values were obtained:
[1] = molecular target: T1, I-HBD (Homo sapiens, UniProt Q9NP59); experiment: Effect of NEM on 125I-hepcidin binding to I-HBD
T1 construct: made in house; host or cells: chemical synthesis
T1 sequence (Q9NP59 with tags, fused parts or gaps limits assumed): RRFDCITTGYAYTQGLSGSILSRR
Description: FIGS. 3A and 3B illustrate that the dissociation of the hepcidin/HBD complex is accelerated by low temperature. In FIG. 3A ^125I-hepcidin was added to I-HBD and a complex was allowed to form at 37° C. The I-HBD/^125I-hepcidin complex was washed and then incubated with an excess of non-radioactive hepcidin. The samples were then incubated at 37° C. (closed circle) or 4° C. (open circle) for the specified times and the amount of radioactivity remaining bound to the I-HBD was determined. The data are expressed as radioactivity at each time point relative to the amount bound at time zero. In FIG. 3B the ^125I-hepcidin/1-HBD complex was allowed to form at 37° C., the complex was then washed and incubated with the indicated concentration of NEM and the amount of bound radioactivity was determined after a four-hour incubation (closed circles). I-HBD alone was also incubated with the specified concentrations of NEM for 2 hours. The I-HBD beads were washed and then ^125I-hepcidin was added at 37° C. and the amount of bound radioactivity was determined after a four-hour incubation (open circles).

[2] = molecular target: T2, hepcidin (Homo sapiens, UniProt P81172, M80Y); experiment: Inhibition of hepcidin-mediated Fpn-GFP internalization in HEK293TFpn-GFP cells by peptides preincubated with hepcidin; format: cell-based; settings: preincubation at 37° C.
T2 construct: generates the mature bioactive 25-amino acid form found in plasma and urine; made in house; host or cells: chemical synthesis
T2 sequence (P81172 60-84 M80Y): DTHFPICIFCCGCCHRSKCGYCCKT
Description: (§1) FIGS. 1A-D illustrate inhibition of hepcidin-mediated Fpn internalization by HBD. […] The HBD peptides and hepcidin were mixed at an equal molar ratio for two hours at 37° C. and then added to cells for one or 24 hours. Fpn internalization at one hour was analyzed by epifluorescence (upper panel) and the percentage of cells showing internalized Fpn-GFP at one and 24 hours was quantified (lower panel). The data represent the standard error of the mean from analyzing over 10 fields (20-30 cells) per sample. FIG. 1B illustrates HBD inhibition of Fpn-GFP internalization. Fpn-GFP expressing cells were incubated with hepcidin, hepcidin preincubated with HBD at 37° C. or hepcidin preincubated with HBD at 4° C. Fpn-GFP internalization at one (black bars) and 24 (grey bars) hours was quantified. The percentage of cells with internalized Fpn is shown. FIG. 1C illustrates that ^125I-hepcidin binds to HBD similarly to unlabeled hepcidin. ^125I-hepcidin was preincubated with HBD at 37° C. or 4° C. for one hour and then the mixture added to cells for one hour (black bars) or twenty-four hours (grey bars). The data are expressed as in FIG. 1B. FIG. 1D illustrates the fact that binding of hepcidin to HBD is reversible by low temperature. In the left panel the samples were treated as in FIG. 1C. In the right panel, the sample was incubated at 37° C. and was placed at 4° C. for four hours. The mixture was then incubated with cells at 37° C. and the internalization of Fpn-GFP was determined after one (black bars) or twenty four hours (grey bars).
(§2) Incubation of HEK293TFpn-GFP cells with hepcidin results in the internalization of cell surface Fpn-GFP (2) and FIG. 1A. […] Previously it was determined that hepcidin binding to Fpn was temperature dependent (2).
(§3) HEK293TFpn-GFP, a stable cell line in which Fpn-Green fluorescent protein (GFP) expression is regulated by the ecdysone promoter has been described previously (2).
(§4) Peptides were synthesized at the DNA/Peptide Core Facility, University of Utah, Salt Lake City, Utah. The peptides were synthesized with two arginines added at the amino and carboxyl terminals. […] Microscope analysis was carried out using an Olympus BX51 microscope (Olympus, Tokyo, Japan). Images were acquired using Picture Frame 2.5 software (Olympus America, East Muskogee, Okla.). All experiments were repeated a minimum of 5 times.
(§5) To characterize the interaction of the HBD with hepcidin, hepcidin was labeled at an iodinateable tyrosine to produce ^125I-hepcidin. Previously, it was shown that ^125I-hepcidin bound to Fpn indistinguishably from hepcidin that lacked the iodinateable tyrosine (2). HBD was then conjugated to agarose beads to produce immobilized HBD (I-HBD), which was then preincubated with ^125I-hepcidin at 37° C. prior to addition to Fpn-GFP expressing cells.

[3] = molecular target: T3, hepcidin (Homo sapiens, UniProt P81172); experiment: as above; format: cell-based; settings: peptide preincubated with hepcidin at equal molar amounts, 37° C.; HEK293TFpn-GFP cells
T3 construct: generates the mature bioactive 25-amino acid form found in plasma and urine; made in house; host or cells: chemical synthesis
T3 sequence (P81172 60-84): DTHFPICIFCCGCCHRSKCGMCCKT
Description: as §1, §2, §3, §4, §5

[4] = molecular target: T4, 125I-hepcidin (Homo sapiens, UniProt P81172, M80Y); experiment: 125I-hepcidin binding to bead-immobilized peptides; settings: 37° C.; listed as HBD peptide containing the human Fpn mutation C326Y
T4 construct: hepcidin 25 synthesized with a tyrosine substitution at position M21 (Y-Hep 25); made in house; host or cells: chemical synthesis
T4 sequence (P81172 60-84 M80Y): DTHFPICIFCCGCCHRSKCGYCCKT
Description: FIGS. 2A-C illustrates that the binding of ^125I-hepcidin to HBD is specific and temperature dependent. In FIG. 2A peptides (HBD, scrambled-HBD or mutant (C326Y HBD) were conjugated to beads and ^125I-hepcidin was added to the bead-immobilized peptides (I-HBD) for 18 hours at 37° C. (black bars) or 4° C. (grey bars). The beads were washed and the amount of ^125I-hepcidin bound to the I-HBD was determined. In FIG. 2B a sub saturating concentration of ^125I-hepcidin (0.6 μg/ml) was incubated with I-HBD for 18 hours at 37° C. in the presence or absence of known concentrations of either hepcidin 25 (Hep 25-open circles) or hepcidin 25 synthesized with a tyrosine substitution at position M21 (Y-Hep 25) and the amount of radioactivity bound to the I-HBD determined. […]
FIGS. 3A and 3B illustrate that the dissociation of the hepcidin/HBD complex is accelerated by low temperature. […] (open circle) for the specified times and the amount of radioactivity remaining bound to the I-HBD was determined. The data are expressed as radioactivity at each time point relative to the amount bound at time zero. In FIG. 3B the ^125I-hepcidin/1-HBD complex was allowed to form at 37° C., the complex was then washed and incubated with the indicated concentration of NEM and the amount of bound radioactivity was determined after a four-hour incubation (closed circles). […]

[5] = molecular target: T5, I-HBD (hepcidin binding domain of ferroportin) (Homo sapiens, UniProt Q9NP59); experiment: Competition with 125I-hepcidin for binding to I-HBD beads
T5 construct: made in house; host or cells: chemical synthesis
Description: FIGS. 2A-C illustrates that the binding of ^125I-hepcidin to HBD is specific and temperature dependent. In FIG. 2A peptides (HBD, scrambled-HBD or mutant (C326Y HBD) were conjugated to beads and ^125I-hepcidin was added to the bead-immobilized peptides (I-HBD) for 18 hours at 37° C. (black bars) or 4° C. (grey bars). The beads were washed and the amount of ^125I-hepcidin bound to the I-HBD was determined. In FIG. 2B a sub saturating concentration of ^125I-hepcidin (0.6 μg/ml) was incubated with I-HBD for 18 hours at 37° C. in the presence or absence of known concentrations of either hepcidin 25 (Hep 25-open circles) or hepcidin 25 synthesized with a tyrosine substitution at position M21 (Y-Hep 25) and the amount of radioactivity bound to the I-HBD determined. In FIG. 2C sub saturating levels of ^125I-hepcidin were incubated with I-HBD at different temperatures.
The binding of ^125I-hepcidin could be reduced by addition of native non-radioactive hepcidin with an apparent K of approximately 200 nM (FIG. 2B). There was no binding of ^125I-hepcidin to I-HBD at 4° C. and ^125I-hepcidin bound to I-HBD at 37° C. was released when subsequently placed at 4° C. (data not shown).
HBD peptides were immobilized by covalently attaching them to agarose beads. […] The fluid was removed and the radioactivity bound to beads was determined by gamma counting (Perkin/Elmer).

[6] = molecular target: T6, Fpn (Homo sapiens, UniProt Q9NP59); settings: reference (7); cited from earlier work
T6 sequence (Q9NP59 1-571): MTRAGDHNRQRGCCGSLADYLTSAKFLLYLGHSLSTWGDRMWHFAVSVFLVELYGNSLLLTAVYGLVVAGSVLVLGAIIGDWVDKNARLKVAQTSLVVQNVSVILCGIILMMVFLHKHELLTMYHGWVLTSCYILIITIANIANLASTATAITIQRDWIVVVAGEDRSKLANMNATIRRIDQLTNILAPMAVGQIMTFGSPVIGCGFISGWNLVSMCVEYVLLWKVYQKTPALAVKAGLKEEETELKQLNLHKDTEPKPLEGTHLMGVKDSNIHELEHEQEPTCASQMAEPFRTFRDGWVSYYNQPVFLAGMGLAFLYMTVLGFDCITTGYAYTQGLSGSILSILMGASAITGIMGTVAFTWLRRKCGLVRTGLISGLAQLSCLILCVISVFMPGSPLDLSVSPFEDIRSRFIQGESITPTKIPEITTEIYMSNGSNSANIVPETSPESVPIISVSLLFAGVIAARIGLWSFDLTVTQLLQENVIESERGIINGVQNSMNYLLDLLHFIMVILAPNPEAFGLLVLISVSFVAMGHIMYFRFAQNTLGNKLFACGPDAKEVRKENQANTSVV

[7] = system: serum hepcidin; experiment: Serum hepcidin levels after LPS injection, I-HBD assay; format: in vivo; settings: LPS injected mice
Description: FIGS. 5A-E illustrate the hepcidin concentrations in mice and human sera. In FIG. 5A, different concentrations of serum were incubated with a known amount of ^125I-hepcidin and I-HBD for 18 hours at 37° C. The beads were washed and radioactivity bound to the beads was determined. A standard curve was determined by incubating known amounts of hepcidin with ^125I-hepcidin and HBD-beads. In FIG. 5B, sera was obtained from wild type mice (C57/Bl6) or from mice that were homozygous for a targeted gene deletion in HFE or homozygous or heterozygous for a targeted gene deletion in the HAMP gene. […] The beads were washed and the amount of radioactivity was determined. Serum hepcidin levels were calculated relative to a standard curve. […] Sera was obtained from the mice 10 hours later and the hepcidin concentration was determined as described in FIG. 5A. In FIG. 5D hepcidin levels were measured in different strains of mice. […] Hepcidin levels were determined as in FIG. 5A. The serum iron (SI), […] (TIBC) and transferrin saturation was calculated as described herein. Each sample was analyzed in triplicate and the error bars represent the standard deviation
HBD peptides were immobilized by covalently attaching them to agarose beads. […] The fluid was removed and the radioactivity bound to beads was determined by gamma counting (Perkin/Elmer). […]

## CCN1C(=O)C=CC1=O [NEM, N-ethylmaleimide]
[1]; I-HBD treated with NEM before 125I-hepcidin
  125I-hepcidin binding activity of I-HBD: loss of ^125I-hepcidin binding activity
[1]; NEM added after complex formed at 37° C.
  125I-hepcidin/I-HBD complex: the complex was not affected

## HBD Mutant: Fpn peptide containing the C326Y mutation, RR-FDYITTGYAYTQGLSGSILS-RR (SEQ ID NO: 4) (RRFDYITTGYAYTQGLSGSILSRR; HBD Mutant)
[2]
  Fpn-GFP internalization activity of 125I-hepcidin after preincubation with peptide: did not affect
[3]
  hepcidin-mediated internalization of Fpn-GFP: did not prevent hepcidin mediated Fpn-GFP internalization
[4]
  125I-hepcidin binding to the peptide: did not bind ^125I-hepcidin

## HBD Scramble: same amino acid composition as HBD in randomized sequence, RR-ILSLFDAYCTGTQITGSGSY-RR (SEQ ID NO: 3) (RRILSLFDAYCTGTQITGSGSYRR; HBD Scramble)
[2]
  Fpn-GFP internalization activity of 125I-hepcidin after preincubation with peptide: did not affect
[3]
  hepcidin-mediated internalization of Fpn-GFP: did not prevent Fpn-internalization

## Hep20: hepcidin derivative with the five amino terminal amino acids deleted (ICIFCCGCCHRSKCGMCCKT; not fully specified (N-terminus, C-terminus); ends and bridges not checked)
[5]
  binding to HBD / I-HBD: nor do they bind to HBD; also recorded: does not bind to I-HBD
[6]
  binding to Fpn: do not bind to Fpn

## lipopolysaccharide [LPS]
[7]
  hepcidin levels in sera: two-fold increase
